These results are taken from patent publication US20070134663.

The target of data set [1] is FLAG-Luc [luciferase: P08659].
The target in the next data set is T1, MSN-V5-His, P26038.
T1 chain: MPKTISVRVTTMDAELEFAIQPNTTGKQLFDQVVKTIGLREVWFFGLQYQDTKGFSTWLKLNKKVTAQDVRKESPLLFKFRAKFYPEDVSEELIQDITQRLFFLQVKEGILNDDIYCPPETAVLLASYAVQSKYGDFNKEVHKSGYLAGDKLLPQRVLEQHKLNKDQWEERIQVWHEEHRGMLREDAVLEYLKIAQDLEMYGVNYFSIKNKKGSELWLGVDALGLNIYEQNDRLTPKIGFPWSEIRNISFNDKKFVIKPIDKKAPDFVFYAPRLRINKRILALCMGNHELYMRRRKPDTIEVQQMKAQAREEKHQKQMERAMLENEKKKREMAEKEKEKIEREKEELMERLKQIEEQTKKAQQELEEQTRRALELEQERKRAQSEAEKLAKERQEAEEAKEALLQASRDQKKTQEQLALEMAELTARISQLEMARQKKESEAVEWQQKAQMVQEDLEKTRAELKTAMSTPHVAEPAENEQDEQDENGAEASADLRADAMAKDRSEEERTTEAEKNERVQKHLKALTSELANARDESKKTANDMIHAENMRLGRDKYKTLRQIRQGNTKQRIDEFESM

Chain of FLAG-Luc [luciferase: P08659] (P08659 whole entry): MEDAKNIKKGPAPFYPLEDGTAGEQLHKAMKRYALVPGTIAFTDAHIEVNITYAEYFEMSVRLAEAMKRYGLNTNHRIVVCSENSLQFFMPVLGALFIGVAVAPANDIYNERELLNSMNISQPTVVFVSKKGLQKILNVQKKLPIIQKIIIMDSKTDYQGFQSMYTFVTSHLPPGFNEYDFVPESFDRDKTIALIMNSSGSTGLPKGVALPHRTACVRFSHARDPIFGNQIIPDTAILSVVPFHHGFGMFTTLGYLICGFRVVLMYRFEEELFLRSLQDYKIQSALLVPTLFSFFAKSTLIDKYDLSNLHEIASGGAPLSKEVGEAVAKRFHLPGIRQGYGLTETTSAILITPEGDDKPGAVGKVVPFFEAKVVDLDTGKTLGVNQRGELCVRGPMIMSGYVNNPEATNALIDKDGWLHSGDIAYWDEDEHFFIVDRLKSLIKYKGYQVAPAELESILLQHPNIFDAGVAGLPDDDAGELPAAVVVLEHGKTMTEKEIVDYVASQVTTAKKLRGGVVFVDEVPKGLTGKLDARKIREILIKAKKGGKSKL
Chain of FLAG-KPNA1, P52294 (P52294 whole entry): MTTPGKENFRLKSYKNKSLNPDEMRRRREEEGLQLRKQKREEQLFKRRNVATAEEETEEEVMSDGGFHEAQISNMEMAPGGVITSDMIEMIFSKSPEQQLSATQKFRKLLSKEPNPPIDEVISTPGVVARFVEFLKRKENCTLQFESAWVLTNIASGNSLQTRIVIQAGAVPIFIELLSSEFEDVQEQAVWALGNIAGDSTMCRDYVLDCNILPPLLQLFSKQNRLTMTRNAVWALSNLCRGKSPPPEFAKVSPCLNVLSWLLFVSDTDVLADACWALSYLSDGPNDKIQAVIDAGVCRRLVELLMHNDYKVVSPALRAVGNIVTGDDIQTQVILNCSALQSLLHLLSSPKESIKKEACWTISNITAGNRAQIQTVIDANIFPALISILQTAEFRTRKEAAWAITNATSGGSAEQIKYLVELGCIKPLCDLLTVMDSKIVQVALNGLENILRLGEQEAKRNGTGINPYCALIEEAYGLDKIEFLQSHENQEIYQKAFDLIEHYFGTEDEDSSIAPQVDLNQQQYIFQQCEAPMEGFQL

B1: purified PKC theta (Upstate) (protein)
chain: MSPFLRIGLSNFDCGSCQSCQGEAVNPYCAVLVKEYVESENGQMYIQKKPTMYPPWDSTFDAHINKGRVMQIIVKGKNVDLISETTVELYSLAERCRKNNGKTEIWLELKPQGRMLMNARYFLEMSDTKDMNEFETEGFFALHQRRGAIKQAKVHHVKCHEFTATFFPQPTFCSVCHEFVWGLNKQGYQCRQCNAAIHKKCIDKVIAKCTGSAINSRETMFHKERFKIDMPHRFKVYNYKSPTFCEHCGTLLWGLARQGLKCDACGMNVHHRCQTKVANLCGINQKLMAEALAMIESTQQARCLRDTEQIFREGPVEIGLPCSIKNEARPPCLPTPGKREPQGISWESPLDEVDKMCHLPEPELNKERPSLQIKLKIEDFILHKMLGKGSFGKVFLAEFKKTNQFFAIKALKKDVVLMDDDVECTMVEKRVLSLAWEHPFLTHMFCTFQTKENLFFVMEYLNGGDLMYHIQSCHKFDLSRATFYAAEIILGLQFLHSKGIVYRDLKLDNILLDKDGHIKIADFGMCKENMLGDAKTNTFCGTPDYIAPEILLGQKYNHSVDWWSFGVLLYEMLIGQSPFHGQDEEELFHSIRMDNPFYPRWLEKEAKDLLVKLFVREPEKRLGVRGDIRQHPLFREINWEELERKEIDPPFRPKVKSPFDCSNFDKEFLNEKPRLSFADRALINSMDQNMFRNFSFMNPGMERLIS
On to B1, for which the “phosphorylation of substrate, in vitro kinase assay with gamma-32P-ATP, SDS-PAGE and autoradiography” value was “phosphorylated band of KPNA1 (molecular weight of about 63 kDa) was observed” with FLAG-KPNA1, P52294; “the negative control Luc does not contain phosphorylated band (molecular weight of about 62 kDa)” in data set [1]; “the positive control MSN contains phosphorylated band (molecular weight of about 71 kDa)” with MSN-V5-His, P26038.
